Results on 6 molecules are retold here after US9375425B2, “Combination of a C-Met antagonist and an aminoheteroaryl compound for the treatment of cancer” (Pierre Fabre Medicament, priority 2008, dated 2016).

Where two headings read alike, the source gives them in different places.

One assay relates to NCI-H441 NSCLC. Briefly: In vivo activity of 224G11 and PF-02341066 as single treatments, NCI-H441 s.c. xenograft. The settings on record: NCI-H441 s.c. in Athymic nude mice; for tumors growth of treated mice (FIG. 1): 224G11 i.p. 2 mg loading dose then 1 mg twice a week, PF-02341066 50 mg/kg p.o.; for antitumoral activity, single treatments compared with each other: same regimens. As to the method:
In order to verify that the NCI-H441 in vivo model available in the laboratory is sensible to both the 224G11 antibody and the PF-2341066 compound, immunocompromised mice engrafted subcutaneously with NCI-H441 were used. Briefly, NCI-H441 NSCLC cells from ATCC were cultured in RPMI 1640 medium, 10% FCS, 1% L-Glutamine. Cells were split two days before engraftment so that they were in exponential phase of growth. Ten million NCI-H441 cells were injected s.c. to Athymic nude mice. […] For the antibody treatment, mice were treated i.p. with a loading dose of 2 mg of 224G11 Mab/mouse and then twice a week with 1 mg of antibody/mouse. 50 mg/kg of PF-02341066 was administered p.o. (oral gavage), daily for a week and then 5 days a week with a double dose the fifth day. Treatment lasted during the whole experiment. Tumor volume was measured twice a week and calculated by the formula: π/6×length×width×height.

A further assay concerns NCI-H441 cells. Briefly: In vivo activity of a combination of 224G11 and PF-02341066, NCI-H441 xenograft. More on the design: species or system Athymic nude mice. The settings on record: day 53 post first injection; 224G11 i.p. 2 mg then 1 mg twice a week; PF-2341066 50 mg/kg p.o. The protocol: NCI-H441 cells from ATCC were routinely cultured in RPMI 1640 medium, 10% FCS, 1% L-Glutamine. Cells were split two days before engraftment so that they were in exponential phase of growth. Ten million NCI-H441 cells were engrafted to Athymic nude mice. […] For the antibody treatment, mice were treated i.p. with a loading dose of 2 mg of 224G11 Mab/mouse and then twice a week with 1 mg of antibody/mouse. 50 mg/kg of PF-2341066 was administered p.o. (oral gavage), daily for a week and then 5 days a week with a double dose the fifth day. The group of mice receiving both 224G11 and PF-2341066 was treated following the same modalities as the one described above for each compound. Tumor volume was measured twice a week and calculated by the formula: […]×length×width×height and animal weights were monitored every day over the period of treatment.
Statistical analysis was performed at each measured time using a Mann-Whitney test. In this experiment, mice of the control group were sacrificed on day 53 for ethical reasons. At day 53 post first injection, the average tumor volume of single modality treated groups is reduced by 64%, 73% and 93% for 224G11, PF-2341066 and 224G11+PF-2341066 respectively. […] No significant differences were observed between the 2 single modality treatment.

Another assay concerns c-Met mutations. The settings on record: cited from earlier work.
The nature of assay [1]: In vivo activity of the anti-c-Met antibodies.
The target in the next assay is c-Met (Homo sapiens, UniProt P08581). The experiment in a line: Inhibition of c-Met dimerization by the antibodies.
Chain of c-Met (P08581 25-1390): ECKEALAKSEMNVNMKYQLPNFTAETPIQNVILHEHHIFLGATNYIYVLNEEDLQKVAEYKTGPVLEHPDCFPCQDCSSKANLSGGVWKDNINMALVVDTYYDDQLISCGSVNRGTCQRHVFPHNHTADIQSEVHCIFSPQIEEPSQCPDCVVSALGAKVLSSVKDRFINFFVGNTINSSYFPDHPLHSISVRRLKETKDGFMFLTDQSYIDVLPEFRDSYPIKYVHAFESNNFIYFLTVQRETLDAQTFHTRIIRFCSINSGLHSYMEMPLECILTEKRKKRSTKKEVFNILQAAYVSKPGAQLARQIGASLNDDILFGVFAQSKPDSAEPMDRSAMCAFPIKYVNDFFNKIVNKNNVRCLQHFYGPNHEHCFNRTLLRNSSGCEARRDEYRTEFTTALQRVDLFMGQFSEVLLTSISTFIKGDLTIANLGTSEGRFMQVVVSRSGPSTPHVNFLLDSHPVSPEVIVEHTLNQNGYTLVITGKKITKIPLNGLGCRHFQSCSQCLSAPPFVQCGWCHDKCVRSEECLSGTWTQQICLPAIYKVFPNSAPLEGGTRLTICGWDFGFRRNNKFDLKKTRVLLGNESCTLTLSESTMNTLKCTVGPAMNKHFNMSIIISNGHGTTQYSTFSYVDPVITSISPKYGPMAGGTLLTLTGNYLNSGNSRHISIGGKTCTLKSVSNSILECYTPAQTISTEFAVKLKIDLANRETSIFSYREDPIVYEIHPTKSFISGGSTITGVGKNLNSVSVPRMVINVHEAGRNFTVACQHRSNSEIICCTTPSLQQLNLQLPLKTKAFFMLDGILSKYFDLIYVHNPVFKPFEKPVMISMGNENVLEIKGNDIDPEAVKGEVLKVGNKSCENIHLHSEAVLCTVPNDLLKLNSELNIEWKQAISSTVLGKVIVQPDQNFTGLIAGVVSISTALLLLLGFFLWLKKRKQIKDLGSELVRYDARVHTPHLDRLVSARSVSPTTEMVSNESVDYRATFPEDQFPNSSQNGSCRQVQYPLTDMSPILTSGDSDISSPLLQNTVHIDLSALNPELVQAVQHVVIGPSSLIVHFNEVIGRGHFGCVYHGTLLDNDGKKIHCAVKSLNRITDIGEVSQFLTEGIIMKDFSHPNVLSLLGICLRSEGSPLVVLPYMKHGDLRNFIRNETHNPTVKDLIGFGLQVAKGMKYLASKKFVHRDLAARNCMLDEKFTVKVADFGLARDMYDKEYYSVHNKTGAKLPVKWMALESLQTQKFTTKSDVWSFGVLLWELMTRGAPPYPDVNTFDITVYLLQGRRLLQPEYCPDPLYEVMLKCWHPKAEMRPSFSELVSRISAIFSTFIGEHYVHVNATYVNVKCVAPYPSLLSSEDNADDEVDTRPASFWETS

In the case of `C[C@@H](Oc1cc(-c2cnn(C3CCNCC3)c2)cnc1N)c1c(Cl)ccc(F)c1Cl` [PF-02341066, 3-[(R)-1-(2,6-Dichloro-3-fluoro-phenyl)-ethoxy]-5-(1-piperidin-4-yl-1H-pyrazol-4-yl)-pyridin-2-ylamine, reference compound], in the assay on NCI-H441 NSCLC, the “tumors growth of treated mice (FIG. 1)” value is recorded as “significant difference in tumors growth” and the “antitumoral activity, single treatments compared with each other” value is reported as “comparable antitumoral activities”. Further, the “average tumor volume reduced by” value with NCI-H441 cells is listed as 73%.

Regarding `Cc1[nH]c(/C=C2\C(=O)Nc3ccc(S(=O)(=O)N(C)c4cccc(Cl)c4)cc32)c(C)c1C(=O)N1CCN(C)CC1` [SU11274], the “sensitivity of c-Met mutation to the agent” value in the assay on c-Met mutations (H1112Y mutation, decreased cell growth and motility) is recorded as “sensitive”; in the assay with c-Met mutations (L1213V mutation), “resistant”; with c-Met mutations (M1268T mutation, decreased cell growth and motility), “sensitive”; in the assay with c-Met mutations (Y1248 mutation), “resistant”.

B1: 11E1: monoclonal antibody antagonist to c-Met, hybridoma CNCM I-3724; heavy chain SEQ ID No. 53, light chain SEQ ID No. 54 (antibody, V domains shown)
VH: QVQLQQSGAELAKPGASVKMSCKASGYTFTSYWMNWVKQRPGQGLEWIGYINPTTGSTDYNQKLKDKATLTADKSSNTAYMQLSSLTSEDSAVYYCAIGGYGSWFAYWGQGTLVTVSA
VL: QIVLTQSPAIMSASPGEKVTLTCSASSSVSSTYLYWYQQKPGSSPKLWIYTTSILASGVPARFSGSGSGTSYSLTISSMETEDAASYFCHQWSSYPFTFGSGTKLDIK
modifications: mus musculus
On to B1, for which, in assay [1], the activity in vivo entry is recorded as “active in vivo”. The c-Met dimerization result in the assay with c-Met is listed as “inhibit the c-Met dimerization”.

B2: 224G11: monoclonal antibody antagonist to c-Met secreted by murine hybridoma CNCM I-3731; heavy chain SEQ ID No. 18, light chain SEQ ID No. 21 (antibody, V domains shown)
VH: EVQLQQSGPELVKPGASVKISCKTSGYIFTAYTMHWVRQSLGESLDWIGGIKPNNGLANYNQKFKGKATLTVDKSSSTAYMDLRSLTSEDSAVYYCARSEITTEFDYWGQGTALTVSS
VL: DIVLTQSPASLAVSLGQRATISCRASESVDSYANSFMHWYQQKPGQPPKLLIYRASNLESGIPARFSGSGSRTDFTLTINPVEADDVATYYCQQSKEDPLTFGSGTKLEMK
modifications: mus musculus
Take B2: in the assay with NCI-H441 NSCLC, the “tumors growth of treated mice (FIG. 1)” value was “significant difference in tumors growth” and the “antitumoral activity, single treatments compared with each other” value is “comparable antitumoral activities”. For the same molecule, the activity in vivo result in assay [1] is reported as “active in vivo”. Besides, the “average tumor volume reduced by” value in the assay with NCI-H441 cells came to 64%. In addition, the c-Met dimerization entry with c-Met is on record as “inhibit the c-Met dimerization”.

B3: 227H1: monoclonal antibody antagonist to c-Met, hybridoma CNCM I-3732; heavy chain SEQ ID No. 19, light chain SEQ ID No. 22 (antibody, V domains shown)
VH: EVQLQQSGPELVKPGASMKISCKASGYSFTDYTLNWVKQSHGKTLEWIGLINPYNGGTTYNQKFKGKATLTVDKSSSTAYMELLSLTSEDSAVYYCAREEITKDFDFWGQGTTLTVSS
VL: GIVLTQSPASLAVSLGQRATISCRVSESIDTYGNSFIHWYQQKPGQPPKLLIYRASNLESGIPARFSGSGSRTDFTLTINPVEADDSATYYCQQSNEDPFTFGSGTKLEMK
modifications: mus musculus
With B3, the activity in vivo result in assay [1] was “active in vivo”. Besides, the c-Met dimerization result with c-Met was “inhibit the c-Met dimerization”.

B4: 223C4: monoclonal antibody antagonist to c-Met, hybridoma CNCM I-3786; heavy chain SEQ ID No. 20, light chain SEQ ID No. 23 (antibody, V domains shown)
VH: EVLLQQSGPELVKPGASVKIPCKASGYTFTDYNMDWVKQSHGMSLEWIGDINPNNGGTIFNQKFKGKATLTVDKSSSTAYMELRSLTSEDTAVYYCARGRYVGYYYAMDYWGQGTSVTVSS
VL: DIQMTQSPASLSVSVGETVTITCRASENIYSNLAWYQQKQGKSPQLLVYAATNLVDGVPSRFSGSGSGTQYSLKINSLQSEDFGSYYCQHFWGPPYTFGGGTKLEIK
modifications: mus musculus
On to B4, for which the activity in vivo result in assay [1] was “active in vivo”. For the same molecule, the c-Met dimerization entry with c-Met is listed as “inhibit the c-Met dimerization”.
